These results are taken from paper PMC9933118 (Proceedings of the National Academy of Sciences of the …, 2023).

Experiment [1] concerns the target biotinylated ZF456 protein (BCL11A) (Homo sapiens, UniProt Q9H165, biotin (site not stated)). In words: AlphaScreen or HTRF. In general terms: Alpha assays give light when donor and acceptor beads are brought close together.
Experiment [2] deals with BCL11A ZF456 (residues 737 to 835) (Homo sapiens, UniProt Q9H165, 15N-labelled in the NMR experiment).
BCL11A ZF456 (residues 737 to 835), sequence (Q9H165 737-835): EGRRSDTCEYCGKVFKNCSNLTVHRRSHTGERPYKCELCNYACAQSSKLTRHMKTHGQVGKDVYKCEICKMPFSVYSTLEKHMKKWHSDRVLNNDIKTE
The target in a further experiment is GST-ZF456 (Homo sapiens, UniProt Q9H165). In words: pull-down.
GST-ZF456, sequence (Q9H165 737-835): as above
The target of the next experiment is ZF456 of BCL11B (Homo sapiens (assumed, as for BCL11A), UniProt Q9C0K0). In words: AlphaScreen or HTRF.
ZF456 of BCL11B, sequence (Q9C0K0 whole entry, looked up, tested part not stated): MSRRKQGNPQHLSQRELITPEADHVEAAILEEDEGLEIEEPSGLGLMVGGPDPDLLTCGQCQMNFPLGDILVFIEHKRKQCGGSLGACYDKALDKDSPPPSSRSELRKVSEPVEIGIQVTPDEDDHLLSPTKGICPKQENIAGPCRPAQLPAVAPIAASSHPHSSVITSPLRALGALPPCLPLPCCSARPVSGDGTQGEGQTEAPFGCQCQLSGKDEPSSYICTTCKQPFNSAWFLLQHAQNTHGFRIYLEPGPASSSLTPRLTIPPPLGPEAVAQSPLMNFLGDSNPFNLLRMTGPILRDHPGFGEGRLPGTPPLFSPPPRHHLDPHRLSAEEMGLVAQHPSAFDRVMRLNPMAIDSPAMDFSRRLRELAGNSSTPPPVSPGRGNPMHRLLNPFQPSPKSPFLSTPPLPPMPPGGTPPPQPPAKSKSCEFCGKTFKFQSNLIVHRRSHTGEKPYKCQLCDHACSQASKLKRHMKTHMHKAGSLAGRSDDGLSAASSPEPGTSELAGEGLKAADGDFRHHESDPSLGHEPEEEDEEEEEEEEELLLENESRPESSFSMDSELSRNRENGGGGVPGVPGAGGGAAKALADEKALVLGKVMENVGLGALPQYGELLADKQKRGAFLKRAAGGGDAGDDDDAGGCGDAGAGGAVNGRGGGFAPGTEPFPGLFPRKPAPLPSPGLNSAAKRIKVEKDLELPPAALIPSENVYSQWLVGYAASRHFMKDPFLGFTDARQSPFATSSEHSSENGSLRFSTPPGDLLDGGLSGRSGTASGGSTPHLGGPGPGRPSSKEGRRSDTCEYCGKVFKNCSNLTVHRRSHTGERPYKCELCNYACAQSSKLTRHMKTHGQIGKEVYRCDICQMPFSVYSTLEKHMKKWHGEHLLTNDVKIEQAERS
In a further experiment the target is Twin-Strep-tagged ZF456 (Homo sapiens, UniProt Q9H165). As to the kind of experiment: SPR.
Twin-Strep-tagged ZF456, sequence (Q9H165 737-835): as the sequence (Q9H165 737-835) above

biotinylated ZF456 protein (BCL11A), sequence (Q9H165 737-835): as above

B1: Nb6101-14 (VHH)
VHH: RVQLVESGGGLVQAGGSLRLSCAADGFDFSSYAMGWYRQAPGYEDELVAAITASGSYTYYSDSVKGRFTISRDNAKNTVYLQMNSLKPEDTAVYYCAALSYVAEGYWGQGTQVTVSS
In the case of B1, binding in experiment [1] was put at a Kd of 26.7 ± 0.7 nM.

B2: Nb6101-19 (VHH)
VHH: RVQLVESGGGLVQAGGSLRLSCAADGFDFKSYAMGWYRQAPGREDELVAAITASGDYTYYADSVKGRFTISRDNAKNTVYLQMNSLKPDDTAVYYCAALSYVAEGYWGQGTQVTVSS
The molecule B2 yielded a Kd in experiment [1] of 21.9 ± 0.4 nM.

B3: Nb6101-22 (VHH)
VHH: RMQLVESGGGLVQAGGSLRLSCAADGFDFSSYAMGWYRQAPGREDELVAAITASGSYTYYSDSVKGRFTISRDNAKNTVYLQMNSLKPDDTAVYYCAALSYVAEGYWGQGTQVTVSS
In experiment [1], B3 showed an equilibrium dissociation constant (Kd) of 54.6 ± 0.9 nM.

B4: Nb6101-20 (VHH)
VHH: RVQLVESGGGLVQAGGSLRLSCAADGFDFKSYAMGWYRQAPGYEDELVAAITASGSYTYYSDSVKGRFTISRDNAKNTVYLQMNSLKPEDTAVYYCAALSYVAEGYWGQGTQVTVSS
For the molecule B4, the Kd in experiment [1] is 77.2 ± 0.5 nM.

B5: Nb5344 (VHH)
VHH: SGGGLVQAGDSLRLSCAASGSTFSGYAMGWYRQAPGKERELVAAITSSGASTYYADSVRGRFTISRDNAKNTVYLQMNSLKPEDTAVYYCAALDEGYLDYDSWGQGTQVTVSS
As to B5, binding in experiment [2] was characterised by a dissociation constant (Kd) of 3420 ± 80 nM.

B6: Nb5344(N74D) (VHH)
VHH: SGGGLVQAGDSLRLSCAASGSTFSGYAMGWYRQAPGKERELVAAITSSGASTYYADSVRGRFTISRDDAKNTVYLQMNSLKPEDTAVYYCAALDEGYLDYDSWGQGTQVTVSS
B6: the Kd in experiment [2] is 1200 ± 50 nM.

B7: Nb61 (VHH)
VHH: QVQLVESGGGLVQAGGSLRLSCAASGFIFDSYAMGWYRQAPGKERELVAAITSSGSSTYYADSVKGRFTISRDNAKNTVYLQMNSLKPEDTAVYYCAALDYVIDGYWGQGTQVTVSS
Turning to B7, the binding result in the experiment with GST-ZF456 is recorded as “binds”.

B8: Nb6101 (VHH)
VHH: RVQLVESGGGLVQAGGSLRLSCAASGFIFDSYAMGWYRQAPGKEMELVAAITSSGSSTYYADSVKGRFTISRDNAKNTVYLQMNSLKPEDTAVYYCAALDYVIDGYWGQGTQVTVSS
As for B8, the binding result with ZF456 of BCL11B is recorded as “no binding”.

B9: Nb6101(M45D) (VHH)
VHH: RVQLVESGGGLVQAGGSLRLSCAASGFIFDSYAMGWYRQAPGKEDELVAAITSSGSSTYYADSVKGRFTISRDNAKNTVYLQMNSLKPEDTAVYYCAALDYVIDGYWGQGTQVTVSS
On to B9, for which, in the experiment with Twin-Strep-tagged ZF456, binding was characterised by a dissociation constant (Kd) of 157 ± 9 nM and the “fold improvement of binding affinity against Nb6101” value was approximately 6 fold.

In general, Kd refers to the equilibrium constant for the complex coming apart. A low value points to a tighter complex.
